{"source": "patent US20240317880A1", "about": "(KLING BIOTHERAPEUTICS B V, published 2024)", "binders": {"B1": {"name": "AT1636 (antibody, V domains shown)", "VH": "EVQLVESGGGLVKPGGSLRLSCAASGFTFSNAWMNWVRQAPGKGLEWVGRIKSKIDGGTTEYTTPVKGRFTISRDDSKDTVYLHMKRLKTEDTAVYYCTPGVGANDPYYFDRWGQGVLVTVSS", "VL": "not shown", "notes": "The original 7G02 antibody is IgG3; also called AT1636 wild-type; AT1636-wt"}, "B2": {"name": "AT1636-YN (antibody, human IgG1, V domains shown)", "VH": "B1 VH with N31Y, D106N", "VL": "not shown", "notes": "also called -NY; AT1636-NY"}, "B3": {"name": "AT1636-E (antibody, human IgG1, V domains shown)", "VH": "B1 VH with G58E", "VL": "not shown", "notes": "also called G63E"}, "B4": {"name": "AT1636-N (antibody, human IgG1, V domains shown)", "VH": "B1 VH with D106N", "VL": "not shown", "notes": "also called D112N"}, "B5": {"name": "AT1636-I (antibody, human IgG1, V domains shown)", "VH": "B1 VH with T28I", "VL": "not shown", "notes": "also called T29I"}, "B6": {"name": "AT1636-IYN (antibody, human IgG1, V domains shown)", "VH": "B1 VH with T28I, N31Y, D106N", "VL": "not shown"}, "B7": {"name": "AT1636-IYEN (antibody, human IgG1, V domains shown)", "VH": "B1 VH with T28I, N31Y, G58E, D106N", "VL": "not shown"}, "B8": {"name": "AT1636-Y (antibody, human IgG1, V domains shown)", "VH": "B1 VH with N31Y", "VL": "not shown", "notes": "also called N36Y"}}, "key": {"[1]": {"biological_target": "T1, truncated 70 kDa form of E-cadherin (p70), endogenous, from DLD1 cells (human, UniProt P12830 463-882, Ser/Thr residues found to be single O-mannosylated (mass spectrometry of AT1636-precipitated p70))", "T1 construct": "range 463-C-terminus; also called p70 E-cadherin; 70 kDa protein", "T1 sequence (looked up)": "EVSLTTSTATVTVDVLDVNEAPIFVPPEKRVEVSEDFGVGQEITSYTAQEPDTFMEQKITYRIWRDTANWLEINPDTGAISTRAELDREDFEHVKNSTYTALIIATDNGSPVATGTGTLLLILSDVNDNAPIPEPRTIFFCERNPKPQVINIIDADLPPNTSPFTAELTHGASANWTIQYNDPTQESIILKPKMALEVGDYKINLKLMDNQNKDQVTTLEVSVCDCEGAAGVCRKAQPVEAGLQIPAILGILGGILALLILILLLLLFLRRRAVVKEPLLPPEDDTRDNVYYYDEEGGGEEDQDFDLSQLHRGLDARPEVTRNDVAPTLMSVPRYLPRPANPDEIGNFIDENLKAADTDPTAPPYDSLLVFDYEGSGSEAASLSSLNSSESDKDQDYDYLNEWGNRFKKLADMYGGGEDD", "test": "immunoprecipitation from DLD1 lysate, western blot, densitometry", "experimental": "The specific binding of AT1636 to p70 E-cadherin was confirmed by western blot. AT1636 reactivity was compared to the commercially available EP700Y (Abcam, rabbit antibody) and a mouse antibody specific for the cytoplasmic domain of E-cadherin (clone 36/E, BD Biosciences). […] The E-cadherin antibody immunoprecipitation was performed from DLD1 cells with equal amounts of lysate (10 mg) and antibodies (2,5 μg). Input (40 μg) and IP samples (all) were run on SDS-PAGE and transferred to PVDF membrane (Bio-Rad) for immunoblotting. Using the antibody binding the intracellular domain of E-cadherin as well as the EP700Y antibody, the full length (120 kDa) E-cadherin as well as the 70 kDa protein were immunoprecipitated, while AT1636 mainly immunoprecipitated the 70 kDa protein (FIG. 2b). Thus AT1636 preferentially binds p70 over full length E-cadherin as shown by the enrichment for p70 over full length E-cadherin. Upon densitometric quantification of the signals, we find a 7-fold enrichment of p70 over full length in the AT1636 IP, compared to the EP700Y IP."}, "[2]": {"biological_target": "T2, full length E-cadherin (about 120 kDa), on human cells or from their lysate (human, UniProt P12830 155-882, O-mannosylated in cells that express TMTC3, as the filing describes)", "T2 construct": "whole, on cells; also called CDH1; CD324", "T2 sequence (looked up)": "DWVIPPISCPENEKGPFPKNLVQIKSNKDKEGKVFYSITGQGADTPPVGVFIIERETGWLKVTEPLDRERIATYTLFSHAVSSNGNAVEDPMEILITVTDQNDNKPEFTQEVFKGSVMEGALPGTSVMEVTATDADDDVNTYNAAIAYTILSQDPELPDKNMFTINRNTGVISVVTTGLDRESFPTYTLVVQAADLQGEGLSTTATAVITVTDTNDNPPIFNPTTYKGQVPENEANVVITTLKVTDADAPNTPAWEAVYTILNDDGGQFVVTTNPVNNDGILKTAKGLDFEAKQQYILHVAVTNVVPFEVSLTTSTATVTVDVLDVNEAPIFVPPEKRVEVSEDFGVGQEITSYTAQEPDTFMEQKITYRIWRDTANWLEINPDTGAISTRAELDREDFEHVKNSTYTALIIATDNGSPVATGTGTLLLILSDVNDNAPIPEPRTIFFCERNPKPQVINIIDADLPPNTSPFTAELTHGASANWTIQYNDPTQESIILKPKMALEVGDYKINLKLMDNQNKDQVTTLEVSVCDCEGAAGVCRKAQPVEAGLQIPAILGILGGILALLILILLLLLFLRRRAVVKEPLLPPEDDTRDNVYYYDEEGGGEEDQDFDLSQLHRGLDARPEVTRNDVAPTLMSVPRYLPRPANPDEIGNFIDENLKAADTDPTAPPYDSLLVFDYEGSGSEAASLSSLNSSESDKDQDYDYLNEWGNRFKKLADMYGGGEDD", "test": "flow cytometry on DLD1 cells with TMTC3 shRNA against scrambled shRNA control"}, "[3]": {"biological_target": "T3, mouse E-cadherin on CMT93 cells (mouse, UniProt P09803 157-884)", "T3 construct": "whole, on cells", "T3 sequence (looked up)": "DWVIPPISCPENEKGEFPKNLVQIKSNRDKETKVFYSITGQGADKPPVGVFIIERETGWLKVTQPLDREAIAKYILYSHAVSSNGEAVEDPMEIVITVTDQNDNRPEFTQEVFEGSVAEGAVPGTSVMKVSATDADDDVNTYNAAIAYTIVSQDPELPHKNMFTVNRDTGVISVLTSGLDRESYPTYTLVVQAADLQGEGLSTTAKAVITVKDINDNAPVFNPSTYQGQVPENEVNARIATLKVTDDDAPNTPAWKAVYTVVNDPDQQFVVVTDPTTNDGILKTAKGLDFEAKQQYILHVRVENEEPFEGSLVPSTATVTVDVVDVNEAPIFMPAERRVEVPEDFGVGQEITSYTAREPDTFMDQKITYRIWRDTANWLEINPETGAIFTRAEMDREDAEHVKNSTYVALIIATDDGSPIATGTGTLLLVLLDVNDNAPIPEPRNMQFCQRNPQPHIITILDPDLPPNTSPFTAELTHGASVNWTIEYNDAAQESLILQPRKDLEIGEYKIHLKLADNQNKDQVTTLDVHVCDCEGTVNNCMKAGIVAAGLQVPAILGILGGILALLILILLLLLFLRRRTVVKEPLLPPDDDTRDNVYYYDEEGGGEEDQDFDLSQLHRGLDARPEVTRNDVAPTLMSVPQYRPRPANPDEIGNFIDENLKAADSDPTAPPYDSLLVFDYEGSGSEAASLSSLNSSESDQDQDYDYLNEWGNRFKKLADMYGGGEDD", "test": "flow cytometry on mouse CMT93 cells"}, "[4]": {"biological_target": "T4, recombinant soluble full length E-cadherin (without transmembrane and intracellular domains) mouse-Fc fusion … (human, UniProt P12830 155-709)", "T4 construct": "extracellular domain; Made in Expi293 or CHO cells; A C-tag-only version is also described; the ELISA used the mFc proteins; also called E-cadherin mFc; not shown: FLAG tag on a mouse Fc-tail equipped with a sortase and HIS tag", "T4 sequence (looked up)": "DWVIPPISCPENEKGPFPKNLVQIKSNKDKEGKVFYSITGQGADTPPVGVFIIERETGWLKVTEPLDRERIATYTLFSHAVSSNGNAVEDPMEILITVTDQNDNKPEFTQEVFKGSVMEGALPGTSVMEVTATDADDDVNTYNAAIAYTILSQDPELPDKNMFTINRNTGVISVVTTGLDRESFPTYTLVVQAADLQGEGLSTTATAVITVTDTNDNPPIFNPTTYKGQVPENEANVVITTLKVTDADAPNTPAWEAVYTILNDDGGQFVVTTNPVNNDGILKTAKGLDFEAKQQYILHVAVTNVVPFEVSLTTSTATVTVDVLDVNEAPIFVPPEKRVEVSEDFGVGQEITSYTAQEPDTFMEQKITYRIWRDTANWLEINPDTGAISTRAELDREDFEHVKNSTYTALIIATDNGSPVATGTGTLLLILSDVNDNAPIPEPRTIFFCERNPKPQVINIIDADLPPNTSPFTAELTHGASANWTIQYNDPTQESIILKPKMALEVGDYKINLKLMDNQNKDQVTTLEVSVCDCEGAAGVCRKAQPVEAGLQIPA", "test": "ELISA on captured full length E-cadherin mFc", "experimental": "(§1) TABLE 4 Calculation of the fold-increase in binding of the AT1636 variants compared to the parental AT1636 wild-type antibody to the Full-Length and p70 E-cadherin and the E-cadherin D3 mutated protein. EC₅₀ values were determined using Prism software. Fold increase in binding compared to AT1636 wild-type antibody\n(§2) Recombinant E-cadherin mFc proteins were captured on 96-well plates (Costar) using goat-anti-mouse IgG Fcy antibodies (Jackson). […] Bound antibodies were visualized using a TMB substrate (Sigma) and the reaction was stopped with H₂SO₄(Merck) and quantified by OD450 measurement using an Envision plate reader (Perkin Elmer). As shown in FIG. 7b (two left panels), similar increased binding of AT1636-YN and -IYN antibody variants in comparison to AT1636 antibody was observed by ELISA to full length E-cadherin and p70. […] Here SC10.17, a humanized EC1 domain specific E-cadherin antibody binds full length E-cadherin but not the p70 truncated variant. Of note, all tested antibodies AT1636 variants, as well as AT1636 wild type, bind the truncated 70 kDa form of E-cadherin better than full length E-cadherin."}, "[5]": {"biological_target": "T5, recombinant soluble p70 E-cadherin mouse-Fc fusion protein (human, UniProt P12830 463-709)", "T5 construct": "range 463-end of the extracellular domain; Made in Expi293 or CHO cells; also called 70 kDa; human p70 E-cadherin-mouseFc-biotin; not shown: FLAG tag on a mouse Fc-tail equipped with a sortase and HIS tag", "T5 sequence (looked up)": "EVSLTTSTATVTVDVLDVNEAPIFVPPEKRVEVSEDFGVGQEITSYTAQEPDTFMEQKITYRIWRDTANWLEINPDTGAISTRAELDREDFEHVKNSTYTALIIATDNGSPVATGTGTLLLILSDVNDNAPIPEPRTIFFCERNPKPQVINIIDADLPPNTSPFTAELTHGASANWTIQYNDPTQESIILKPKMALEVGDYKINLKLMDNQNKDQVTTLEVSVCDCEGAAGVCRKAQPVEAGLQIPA", "test": "ELISA on captured p70 E-cadherin mFc", "experimental": "as §1, §2"}}, "note": "Numbering of substitutions follows the chain as printed. Names may count otherwise.", "data": [{"binder": "B1", "values": [{"measurement": "fold enrichment of p70 over full length E-cadherin in the IP, compared to the EP700Y IP", "setting": "[1]", "result": 7, "unit": "fold"}, {"measurement": "fold reduction in binding after TMTC3 knock-down", "setting": "[2]", "result": "> 3", "unit": "fold"}]}, {"binder": "B2", "values": [{"measurement": "binding result", "setting": "[3]", "result": "binds"}, {"measurement": "fold increase in binding compared to AT1636 wild-type antibody (ratio of ELISA EC50 values)", "setting": "[4]", "result": 28.4, "unit": "fold"}, {"measurement": "fold increase in binding compared to AT1636 wild-type antibody (ratio of ELISA EC50 values)", "setting": "[5]", "result": 56.5, "unit": "fold"}]}, {"binder": "B3", "values": [{"measurement": "fold increase in binding compared to AT1636 wild-type antibody (ratio of ELISA EC50 values)", "setting": "[4]", "result": 0.5, "unit": "fold"}, {"measurement": "fold increase in binding compared to AT1636 wild-type antibody (ratio of ELISA EC50 values)", "setting": "[5]", "result": 0.2, "unit": "fold"}]}, {"binder": "B4", "values": [{"measurement": "fold increase in binding compared to AT1636 wild-type antibody (ratio of ELISA EC50 values)", "setting": "[4]", "result": 6, "unit": "fold"}, {"measurement": "fold increase in binding compared to AT1636 wild-type antibody (ratio of ELISA EC50 values)", "setting": "[5]", "result": 4.5, "unit": "fold"}]}, {"binder": "B5", "values": [{"measurement": "fold increase in binding compared to AT1636 wild-type antibody (ratio of ELISA EC50 values)", "setting": "[4]", "result": 2.6, "unit": "fold"}, {"measurement": "fold increase in binding compared to AT1636 wild-type antibody (ratio of ELISA EC50 values)", "setting": "[5]", "result": 2, "unit": "fold"}]}, {"binder": "B6", "values": [{"measurement": "binding result", "setting": "[3]", "result": "binds"}, {"measurement": "fold increase in binding compared to AT1636 wild-type antibody (ratio of ELISA EC50 values)", "setting": "[4]", "result": 64.3, "unit": "fold"}, {"measurement": "fold increase in binding compared to AT1636 wild-type antibody (ratio of ELISA EC50 values)", "setting": "[5]", "result": 67.1, "unit": "fold"}]}, {"binder": "B7", "values": [{"measurement": "binding result", "setting": "[3]", "result": "binds"}, {"measurement": "fold increase in binding compared to AT1636 wild-type antibody (ratio of ELISA EC50 values)", "setting": "[4]", "result": 34.3, "unit": "fold"}, {"measurement": "fold increase in binding compared to AT1636 wild-type antibody (ratio of ELISA EC50 values)", "setting": "[5]", "result": 28.6, "unit": "fold"}]}, {"binder": "B8", "values": [{"measurement": "fold increase in binding compared to AT1636 wild-type antibody (ratio of ELISA EC50 values)", "setting": "[4]", "result": 6.5, "unit": "fold"}, {"measurement": "fold increase in binding compared to AT1636 wild-type antibody (ratio of ELISA EC50 values)", "setting": "[5]", "result": 6.6, "unit": "fold"}]}]}
